# Measurements as given in the nanobody polyreactivity screen of Harvey et al. (2022).
# Assay: yeast display, Sf9 membrane polyspecificity reagent, FACS + sequencing; frameworks hold sequencing errors
# Method in brief: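 Synthetic nanobody libraries on Saccharomyces cerevisiae BJ5465 were galactose-induced for 36–48 hours, stained 1 hour at 4 °C with 10% biotinylated, detergent-solubilized Sf9 membrane reagent and enriched on streptavidin microbeads. FACS then separated cells into low and high (top ~1%) gates by anti-HA (expression) and streptavidin (reagent binding) fluorescence. Genes were colony-PCR amplified, MiSeq 2 × 250 sequenced and CDR-length filtered. A clone's polyreactivity label is that of its gate of origin.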
row,Sequence,polyreactivity (PSR sort gate)
1,QVQLVESGGGLVQAGGSLRLSCAASGRTYPGNAMGWYRPAPGKERELVAAISWSGTRTYYADSVKGRFTISRDNAKNTVYLQMNSLKPEDTAVHFCNVVVKGAWDYYPYDYWGQGTQVTVSS,high polyreactivity
2,QVQLVESGGGLVQAGGSLRLSCAASGRTYRRNAMGWYRQAPGKERELVAAIRSDGSTYYADSVKGRFTISRDNAKNTVYLQMNRLKPEDTAVYYCNAVYVSSFTCHDYWGQGTQVTVSS,low polyreactivity
3,QVQLVESGGGLVQAGGSLRLSCAASGRTYRRYAMGWYRQAPGKERELVASISRTGGSTYYADAVKRRYTISRDNAKNTVYLQMNSLKPVDTAVYYCNAGPSVGWYNYWGQGTQVSVSS,high polyreactivity
4,QVQLVESGGGLVQAGGSLRLSCAASGRTYSYYAMGWYRQAPGKERQLVAAITTRTGSTYYADSVKGRFTISRDNAKNTVYLQMNSLKPEDTAVYYCAAEPRYLRSGKGFDYWGQGTQVTVSS,high polyreactivity
5,QVQLVESGGGLVQAGGSLRLSCAASGRTYTGYGMGWSRQAPGKERELVAAITWRGDRTYYADSVKGRFTISRDNAKNTVYLQMNSLKPEDTAVYYCNKLGRIQYDYWGQGTQVTVSS,high polyreactivity
6,QVQLVESGGGLVQAGGSLRLSCAASGRTYTYAMGWYRQAPGKERELVAGISRRGGNTYYADSVKGRFTISRDNAKNTVYLQMNSLKPEDTAVYYCAAVSFSASSYTYEYWGQGTQVTVSS,high polyreactivity
7,QVQLVESGGGLVQAGGSLRLSCAASGRTYVFYVMGWYRQAPGKERELVASISRSGGSTYYADSVKGRFTISRDNAKNTVYLQMNSLKPEDTAVYYCAADQLYYGERDYIWGYYYWGQGTQVTVSS,low polyreactivity
8,QVQLVESGGGLVQAGGSLRLSCAASGRTYVPNAMGWYRQAPGKEREFVAAITSRGGRTFYADSVKGRFTISRDNAKNTVYLQMNSLKPDDTAVYYCAAYRPGFVYGRLDYWGQGTQVTVSS,high polyreactivity
9,QVQLVESGGGLVQAGGSLRLSCAASGRTYVRDTMGWYRQAPGQERQLVAAITWSGGSTYYADSVKGRFTISRDNAKNTVYLQMNSLKPEDTAVYYCARRYSPHTSVSYYSWGQGNQVTVSS,high polyreactivity
10,QVQLVESGGGLVQAGGSLRLSCAASGRTYYWNAMGWYRQAPGKEREFVAAITNTAGSTYYADSVKGRFTISRDNAKNTVYLQMNSLKPEDTAVYYCAKSGNAGYRTYLRDYWGQGTQVTVSS,low polyreactivity
11,QVQLVESGGGLVQAGGSLRLSCAASGRTYYWYAMGWYRQAPGKERELVAAISSGGSTYYADSVKGRFTISRDNAKNTVSLQMISLKPEDTAVYYCAAYPQAYIADYDYWGQGTQVTVSS,low polyreactivity
12,QVQLVESGGGLVQAGGSLRLSCAASGRYAMGWYRQAPGKVRELVAAISDSDGSTYYADSVKGRFTISRDNAKTNVYLQMNSLKPEDTAVNYCDARSIVRFDSWGQGTQVTVSS,low polyreactivity
13,QVQLVESGGGLVQAGGSLRLSCAASGSIAGNAMGWYRQARGKEREMVAAITFRGSGTYYADSVKGRFTISRDNAKKTVYLQMNSLKPEDTAVYYCNAYRRGLSGYGYWGQGTQVTVSS,high polyreactivity
14,QVQLVESGGGLVQAGGSLRLSCAASGSICDVNAMGWYRQAPGKEREMVAAISDSGGSTYYADSVKGRFTISRDTAKNTVYLQMNSLNPEDTSVYYCNADWSWYNYYDFDYWGQGTQVTVSS,low polyreactivity
15,QVQLVESGGGLVQAGGSLRLSCAASGSICGGYAMGWYRQAPGKERELVAGITRSGGSTYYADSVKGRFTISRDNAKNTVYLQMNSLKPEDTAVYYCAVEIQFYRSPRKVRSYDYWGQGTQVTVSS,low polyreactivity
16,QVQLVESGGGLVQAGGSLRLSCAASGSICGLYDMRWYRQAPGKERELVASITGGGSTYADSVKGRFTISRDNAKNTVYLQMNSLKPEDTAVYSFAAKPYSFYGYKYDYWGQGTQVTVSS,low polyreactivity
17,QVQLVESGGGLVQAGGSLRLSCAASGSIFAANAMGWYRQAPGKERELVAAISRSGNTYYADSVKGRFTISRDNAKNTVYLQMNSLKPEDTAVYYCAARRDAYGRTYGYWGQGTQVTVSS,high polyreactivity
18,QVQLVESGGGLVQAGGSLRLSCAASGSIFAANAMGWYRQAPGKERELVADITKSGGSTYYADSVKGRFTISRDNAKNTVYLQMNSLKPEDTAVYYCNADDTQLESFAPGHGYDYWGQGTQVTVSS,low polyreactivity
19,QVQLVESGGGLVQAGGSLRLSCAASGSIFAANVMGWYRQAPGKERELVAVISGGGGRTFYADSVKGRFTISRDNAKNTVYLQMNSLKPEDTAVYYCAADRRDRSPYYYWGQGTQVTVSS,high polyreactivity
20,QVQLVESGGGLVQAGGSLRLSCAASGSIFAAYAMGWYRQAPGKERELVAAIDRGGSTDYADSVKGRFTISRDNAKNTVYLQMNSLKPEDTAVYYCAKGYDYYVRRYYYWGQGTQVTVSS,high polyreactivity
21,QVQLVESGGGLVQAGGSLRLSCAASGSIFAAYAMGWYRQAPGKERELVAAITSGGGTYYADSVKGRFTISRDNAKNTVYLQMNSLKPEDTAGYYCNAGNTYNRVIWPYYYWGQGTQVTVSS,high polyreactivity
22,QVQLVESGGGLVQAGGSLRLSCAASGSIFAAYAMGWYRQAPGKERELVAVINSRGGITSYADSVKGRFTISRDNAKNTVYLQMNSLKPEDTAVYYFAARTWYSWRYDYWGQGTQVTVSS,high polyreactivity

row,Sequence,polyreactivity (PSR sort gate)
1,QVQLVESGGGLVQAGGSLRLSCAASGSIFADNTMGWSRQSPGKERELVAAITSSGRTYYADSVKGRFTISRDNAKNTVYLQMNSLKPEDTAVYYCAAVIYFHDYSPYYYWGQGTQVTVSS,high polyreactivity
2,QVQLVESGGGLVQAGGSLRLSCAASGSIFADYAMGWYRQAPGKERELVAAITSGGSTYYADSVKGRFTISRDNAKNTVYLQKNSLKPEDTAVYYCAADWAFSRFAYQTDIYEYWGQGTQVTVSS,low polyreactivity
3,QVQLVESGGGLVQAGGSLRLSCAASGSIFAFYAMGWYRQSPGKERELVAAISYNGGSTYYADSVKVRFTLSRDNAKNTVYLQMNSLEPEDTAVYYCAAYHFSAPSEYDYWGQGTQVTVSS,low polyreactivity
4,QVQLVESGGGLVQAGGSLRLSCAASGSIFAGNAMGWYRQAPGKERELVAGITFGDDSTYYADSVKGRFTISRDNAKNTVYLQMNSLKPEDTAVYYCATDLHPYNYYFYHYWVDAAYDYWGQGTQVTVSS,low polyreactivity
5,QVQLVESGGGLVQAGGSLRLSCAASGSIFAHYAMGWYRQAPGKARELVAAISRGGGSTYYSDSVKGRFTISRDNAKNTVYLQMNSLKPEDTAVYYCAVVRSYRGINDYWGQGTQVTVTS,low polyreactivity
6,QVQLVESGGGLVQAGGSLRLSCAASGSIFAKNAMGWYRQAPGKERELVAGIDFSGGSTYYADSVKGRFTISRDNAKNTVYLQMNSLKPEDTAVDYCAADWAYKYELDYWGQGTQVTVSS,low polyreactivity
7,QVQLVESGGGLVQAGGSLRLSCAASGSIFAKYAMGWYRQAPGKEREFVAAIRASGGRTYYADSVKGRFTISRDNAKNTVYLQMNSLKPEDTAVYYCAAHLYSSRSDYDGPRSRRNYWGQGTQVTVSS,high polyreactivity
8,QVQLVESGGGLVQAGGSLRLSCAASGSIFAKYGMGWYRQAPGKEREFVAAISKSGGITYYADSVKGRFTISRDNAKNTVYLQMNSLKPEDTAVYYCADSYVSYRKRDDYWGQGTQVTVSS,high polyreactivity
9,QVQLVESGGGLVQAGGSLRLSCAASGSIFALYAMGWYRQAAGKERELVAAITKGGGSTYYADSVKGRFTISRDNAKNTVYLQMNSLKPEDTAVYYCAARGRYSAPDYGYWGQGTQVTVSS,high polyreactivity
10,QVQLVESGGGLVQAGGSLRLSCAASGSIFALYAMGWYRQAPGKERELVAAISNTGGSTYYADSVKGRFTISRDNAKNTVYLQMNSLKPEDTAVYYCAARKARSSPRYYYWGQGTQVTVSS,high polyreactivity
11,QVQLVESGGGLVQAGGSLRLSCAASGSIFALYAMGWYRQAPGKERELVAAISRRGGRTYYADSVKGRFTISRDNAKNTVYLQMNSLIPEDTAVYYCNARGYNVPHPNRYDYWGQGTQVTVSS,high polyreactivity
12,QVQLVESGGGLVQAGGSLRLSCAASGSIFAPNAMGWYRQAPGKERELVARISRTGGSTNYADSVKGRFTISRDNAKNTVYLQMNSLKPEDTAVYYCNTQYSYSSAPPFWYTQMYYWGQGTQVTVSS,high polyreactivity
13,QVQLVESGGGLVQAGGSLRLSCAASGSIFAPYAMGWYRQAPGKERELVATISSIGTSTYYADSVKGRFTISRDNAKNTVYLQMNSLKPEDTAVYYCAADQSGGYPDNYWGQGTQVTVSS,low polyreactivity
14,QVQLVESGGGLVQAGGSLRLSCAASGSIFAQNAMGWYRQAPGKERELVAAITSGGSTYYADSVKGRFTISRDNAKNTVYLQMNSLKPEDTAVYYCAARGWGPFYQYYYLGQGTQVTVSS,high polyreactivity
15,QVQLVESGGGLVQAGGSLRLSCAASGSIFAQYTMGWYRQAPGKERELVAVISFRGGSTYYADSVKGRFTISRDNAKNTVYLQMNSLKPEDTAVYYCATVGTYPGYGEFDYWGQGTQVTVSS,low polyreactivity
16,QVQLVESGGGLVQAGGSLRLSCAASGSIFARFAMGWYRQAPGKERELVAAISGRGGSTYYADSVKGRFTISRDNAKNTVYLQMNSLKPEDTAVYYCNAVGHTSIRRALDILDYWGQVTQVTVSS,high polyreactivity
17,QVQLVESGGGLVQAGGSLRLSCAASGSIFARNAMGWSRQAPGKERELVAGISRRGGSTYYADSVKGRFTISRDNAKNTVYLQMNSLKPEDTAVYYCNAVVYSPPYDYWGQGTQVTVSS,high polyreactivity
18,QVQLVESGGGLVQAGGSLRLSCAASGSIFARNAMGWYRQAPGKERELVAAISWSGGRTYYADSVKGRFTISRDNAKNTVYLQMNSLKPEDTAVYYCATDTWWGQGTQVTVSS,high polyreactivity
19,QVQLVESGGGLVQAGGSLRLSCAASGSIFARNAMGWYRQAPGKERELVASITSNSGNTYYADSVKGRFTISRDNAKNTVYLQMNSLKPEDTAVYYCAADQLSDEYDYWGQGTQVTVSS,high polyreactivity
20,QVQLVESGGGLVQAGGSLRLSCAASGSIFARYAMGWYIQAPGKEREFVAAISRSGGSTYYADSVKGRFTISRDNAKNTVYLQMNSLKPEDTAVYYCAARGGTKYDYWGQGTQVTVSS,high polyreactivity
21,QVQLVESGGGLVQAGGSLRLSCAASGSIFARYAMGWYRQAPGKERELVAAISSDGSTYYADSVKGRFTISRDNEKNTVYLQMNSLKPEDTAVYYCNTQFRYPQKYDYWGQGTQVTVSS,high polyreactivity
